Test: yeast display, Sf9 membrane polyspecificity reagent, FACS + sequencing; frameworks hold sequencing errors
Method in brief: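 In a synthetic yeast display library (Saccharomyces cerevisiae BJ5465), nanobody expression was induced with galactose for 36–48 hours. FACS gates were set low and high (top ~1%) using anti-HA fluorescence for expression and streptavidin fluorescence for binding of the Sf9 membrane reagent. Each polyreactivity label is drawn from the gate of origin.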

| Sequence | polyreactivity (PSR sort gate) |
| --- | --- |
| QVQLVESGGGLVQAGGSLRLSCAASGSIFVFYAMGWYRQAPGKEREFVAAMSISGGRTYYADSVKGRFTISRDIAKNTVYLQMNSLKPEDTAVYYCAASRVYTSITLYYWGQGTQVTVSS | high polyreactivity |
| QVQLVESGGGLVQAGGSLRLSCAASGSIFVGKAMGWYRQAPGKERELVAAISSSGGRTYYADSVKGRFTISRDNAKNTVYLQMNSLKPEDTAVYYCAADVSYKVKSWSVYRYEYWGQGTQVTVSS | high polyreactivity |
| QVQLVESGGGLVQAGGSLRLSCAASGSIFVGNAMGWYRQAPGKERELVAAISSSGGRTFYADSVKWRFTISRDNAKNTVYLQMNSLKPEDTAVYYCAAVYTHWQQRMDYWGQGTQVTVSS | high polyreactivity |
| QVQLVESGGGLVQAGGSLRLSCAASGSIFVGNAMGWYRQAPGTERELVAAISSSGGSTYSADSVKGRFTISRDNAKNTVYLQMNSLKPEDTAVYYCAADTYSTSGYYYWGQGTQVTVSS | low polyreactivity |
| QVQLVESGGGLVQAGGSLRLSCAASGSIFVGNGMGWYRQAPGKERELVAAITFRSGSTYYADSVKGRFTISRDNAKNTVYFQMISMKPEDTAVSYCAADEYYQVYAYDYCGQGTQVTVSS | low polyreactivity |
| QVQLVESGGGLVQAGGSLRLSCAASGSIFVGNVMGWYRQAPGKERELVAAIRFSGGNTYYADSVKGRFTISRDNAKNTVYLQMNSLKPEDTAVYYCAARYGQGSYPTKYYYWGQGTQVTVSS | high polyreactivity |
| QVQLVESGGGLVQAGGSLRLSCAASGSIFVGYAMGWYRQAPGKEREFVAAISQRGTRTYYADSVKGRFTISRDNAKNTVYLQMNSLKPEDTAVYYCAARGWDQRSDYWGQGTQVIVSS | high polyreactivity |
| QVQLVESGGGLVQAGGSLRLSCAASGSIFVGYAMGWYRQAPGKERELVAAISSNGGSTYYADSVKGRFTISRDNAKNTVYLQMNSLKPEDTAVYYCAAGVRRVYASGHGAYGYWGQGTQVTVSS | low polyreactivity |
| QVQLVESGGGLVQAGGSLRLSCAASGSIFVGYDMGWYRQAPGKERELVAAITGTVSTYYADSVKGRFTISRDNAKNTVYLQMNSLKPEDTAVYYCAAEFVYAYGDGGVYWSWMEYWGQGTQVTVSS | low polyreactivity |
| QVQLVESGGGLVQAGGSLRLSCAASGSIFVHNAMGWYRQAPGKERELVAAISSNGGRTYYADSVKGRFTISRDNAKNTVYLQMNSLKPEDTAVYYCNAPRFVGLNVYGYDYWGQGTQVTVSS | high polyreactivity |
| QVQLVESGGGLVQAGGSLRLSCAASGSIFVHNDMGGYRQAPGTERELVATIDSAGGTYYADSVKGRFTISRDNAKYTVYLQMNSLKPEDTAVYYCAAYGPYVLSIYDYWGQGTQVTVSS | low polyreactivity |
| QVQLVESGGGLVQAGGSLRLSCAASGSIFVHYALGWYRQAPGKERELVAAITVTGGTTYYADSVKGRFTISRDNAKNTVYLQMNSLKPEDTAVYYCATRANDGGWTQFGHGYDYWGQGTQVTVSS | low polyreactivity |
| QVQLVESGGGLVQAGGSLRLSCAASGSIFVINAMGWYRQAPGKERELVAAISYSGTGTYYADSVKGRFPISRDNAKITVYLQMNSLKPEDTAVYYCAADYYYRYRIYDYWGHGTQVTVSS | low polyreactivity |
| QVQLVESGGGLVQAGGSLRLSCAASGSIFVIYALGWYRQAPGKERELVARITKSGGTTYYADSVKGRFTISRDNAKNTVYLQMNSLKPDDTAVYYCNVGYGGSSDGGYDYWGQGTQVTVSS | high polyreactivity |
| QVQLVESGGGLVQAGGSLRLSCAASGSIFVKYAMGWYRQAPGKERELVAAISRRGGSTNYADSVKGRFTISRDNAKNTVYLQMNSLKPEDTAVYYCNAQTVTSYGGDSWGQGTQVTVSS | high polyreactivity |
| QVQLVESGGGLVQAGGSLRLSCAASGSIFVLNAMGWYRQAPGKERELLAGITYSGGSTYYADSVKGRFTISRDNAKNTVYLQMNSLKPEDTAVYYCAAPVRRYPYPGRFYYWGQGTQVTVSS | low polyreactivity |
| QVQLVESGGGLVQAGGSLRLSCAASGSIFVLNAMGWYTQAPGKERELVAAINKSGGRTYYADSVKGRFTISRDNAKNTVYLQMNSLKPEDTAVDYCAVDISVTGSSNRYGYWGQGTQVTVSS | high polyreactivity |
| QVQLVESGGGLVQAGGSLRLSCAASGSIFVLYAMGWYRKAPGKERELVAAISRGVGGTNYADSVKGRFTISRDNAKITVYLQMNSLKPEDTAVYYCAAQTLRWSHYYYWGQGTQVTVSS | high polyreactivity |
| QVQLVESGGGLVQAGGSLRLSCAASGSIFVLYAMGWYRQAPGKERELVAAISRGVGGTNYADSVKGRFTISRDNAKNTVYLQMNSLKPEDTAVYYCAAQTLRWSHYYYWGQGTQVTVSS | high polyreactivity |
| QVQLVESGGGLVQAGGSLRLSCAASGSIFVNNAMGWYRQAPGKERELVAAITCSTGSTYYADSVKGRFTISRDNAKNTVYLQMNSLKPEDTAVYYCAATSYTATWRYYYWGQGTQVTVSS | high polyreactivity |
| QVQLVESGGGLVQAGGSLRLSCAASGSIFVNNAMVWYRQAPGKERELVAAISSRGGSTYYADSVKGRFTISRDNAKNTVYLQMNSLKPEDTAVYYCAAAGYGKVRGDYWGQGTQVTVSS | low polyreactivity |

| Sequence | polyreactivity (PSR sort gate) |
| --- | --- |
| QVQLVESGGGLVQAGGSLRLSCAASGSIFVNYAKGWYRQAPGKERELVAAITRSGGRTYYADSVKGRFTISRDNAKNTVYLQMNSLKPEDTAVYYCNKRRYPYGWGQGTQVNVSS | high polyreactivity |
| QVQLVESGGGLVQAGGSLRLSCAASGSIFVNYAMGWYRQAPGKERELVAAITLRGGSTFYADSVKGRFTISRDNAKNTVYLQMNSLKPEDTAVYYCAASSLRYRAYKSLFDYWGQGTQVTVSS | low polyreactivity |
| QVQLVESGGGLVQAGGSLRLSCAASGSIFVPYAMGWYRQAPGKERELVAAISSRGGRTYYADSVKGRFTISRDNPKNTVYLQMNSLKPEDTAVYYCNKTAGSHIPRLEYWGQGTQVTVSS | low polyreactivity |
| QVQLVESGGGLVQAGGSLRLSCAASGSIFVPYAMGWYRQAPGKERELVAAISSSTASTYYADSVKGRFTISRDNAKNTVYLQMNSLKPEDTAVYYCNAEQWDYGVRVAHYDYWGQGTQVTVSS | low polyreactivity |
| QVQLVESGGGLVQAGGSLRLSCAASGSIFVQYDMGWYRQAPGKERELVAAITSGSSTNYADSVKGRFTISRDNAKNTVYLQMNSLKPEDTAVYYCAASTPYSYRYDYWGQGTQVTVSS | low polyreactivity |
| QVQLVESGGGLVQAGGSLRLSCAASGSIFVRNALGWYRQAPGKEREFVAIRFSGATTYYADSVKGRFTISRDNAKNTVYLQMNSLKPEDTAVYYCAAVARTYGRTSYYWGQGTQVTVSS | high polyreactivity |
| QVQLVESGGGLVQAGGSLRLSCAASGSIFVRNAMGWYRQAPGKERELVAAITYRGGSTYYADSVKGRFTISRDNAKNTVYFQMNSLKPEDTAVYYCFDVNTDVLSRVYRGWGYYYWGQGTQVTVSS | low polyreactivity |
| QVQLVESGGGLVQAGGSLRLSCAASGSIFVRYAKGWYRQAPGKERELVAAIDIGGGTYYADSVKGRFTISRDNAKNTVYLQMNSLKPEDTAVYYCAADGFTEYIYLPYDYWGQGTQVTVSS | high polyreactivity |
| QVQLVESGGGLVQAGGSLRLSCAASGSIFVSNAMGWSRQAPGKERELVAAITRSGGSTYYADSVKGRFTISRDNAKNTVYLQMNCLKPEDTAVYYCAAATYRYGYGYWGQGTQVTVSS | high polyreactivity |
| QVQLVESGGGLVQAGGSLRLSCAASGSIFVSNAMGWYRQAPGKEREFDAGITRRGGRTYYADSVKGRFTISRDNAKNTVYLQMNSLKPEDTPVYYCAAKSTTSRFDYWGQGTQVTVSS | high polyreactivity |
| QVQLVESGGGLVQAGGSLRLSCAASGSIFVSYAMGWYRQAPGKERELVAAISISDGSTYADSVKGRFTISRDNAKNTVYLQMNSLKPEDTAVYYCATYLVYDYAYVAYDYWGQGTQVTVSS | low polyreactivity |
| QVQLVESGGGLVQAGGSLRLSCAASGSIFVSYAMGWYRQAPGKERELVAAISSSGTRTYYADSVKGRFTISRDNAKNTVYLQMNSLKPEDTAVYYCAKDSYHTVWGGYWGQGTQVTVSS | high polyreactivity |
| QVQLVESGGGLVQAGGSLRLSCAASGSIFVSYAMGWYRQAPGKERELVAAITSIGTRTNYADSVKGRFTISRDNAKNTVYLPMNSLKPEDTAVYYCNAPRFWSRHGLRDYWGQGTQVTVSS | high polyreactivity |
| QVQLVESGGGLVQAGGSLRLSCAASGSIFVSYAMGWYRQAPGKERELVAVISYSGVSTYYADSVKGRFTISRDNAKNTVYLQMNSLKPEDTAVYYCATRQYGTRHILKYNYWGQGTQVTVSS | low polyreactivity |
| QVQLVESGGGLVQAGGSLRLSCAASGSIFVSYAMGWYRQAPGNDRELVAAISGGGVSTYYADSVKGRFSISRDNAKNTVYLQMNSLKPEDTAVYYCATPYVQTGSGYTGDYWGQGTQVTVSS | high polyreactivity |
| QVQLVESGGGLVQAGGSLRLSCAASGSIFVSYGMGWYRPAPGKERELVAAISGGGVSTYYADSVKGRFTISRDNAKNTVYLQMNSLIPEDTAVYYCAAEVSFGWGNYGYDYWGQGTQVTVSS | high polyreactivity |
| QVQLVESGGGLVQAGGSLRLSCAASGSIFVTYAMGWYRQAPGKERELVAAINYSGGSTYYADSVKGRFTISRDNAKNTVYLQMNSLKPEDTAVYYCAADERVDQGWIRMDYWGQGTQVTVSS | low polyreactivity |
| QVQLVESGGGLVQAGGSLRLSCAASGSIFVTYAMGWYRQAPGKERELVAAITWNGGSTYYADSVKGRFTISRDNAKNTVYLQMNSLKPEDTAVYYCAADSRYRGNYWGQGTQVTVSS | high polyreactivity |
| QVQLVESGGGLVQAGGSLRLSCAASGSIFVTYAMGWYRQAPGKERELVATITSSGGSTYYADSVKGRFTISRDNAKNTVYLQMNSLKPEDTAVYYCATDFGASVWDYFRRVYYWFGYWGQGTQVTVSS | low polyreactivity |
| QVQLVESGGGLVQAGGSLRLSCAASGSIFVVNAMGWYRQAPGKERELGASISQSGDNTYYADSVKGRFTISRDNAKNTVYLQMISLKTEDTAVYYCNAYGGYPEVDYWGQGTQVTVSS | low polyreactivity |
